Measurements taken from patent US20140271457A1 (AbbVie / Abbott, published 2014).
Positions count from the first letter of the chain named.

B1: DVD3158 (bispecific antibody, IgG1)
VH: EVQLVQSGAEVKKPGASVKVSCKASGYTFTSYWMHWVRQAPGQGLEWIGNINPKGGSNIYNEKFQGRVTMTRDTSISTAYMELSRLRSDDTAVYYCARLDYFGDSFDLWGQGTTVTVSSGGGGSGGGGSEVQLVESGGGLVQPGGSLRLSCAASGFTFSNYGVEWVRQAPGKGLEWVSGIWADGSTHYADTVKSRFTISRDNSKNTLYLQMNSLRAEDTAVYYCAREWQHGPVAYWGQGTLVTVSS
VL: DIQMTQSPSSLSASVGDRVTITCRASQGIRNYLNWYQQKPGKAPKLLIYYASNLEVGVPSRFSGSGSGTDYTLTISSLQPEDFATYYCQQDNRFPYTFGGGTKVEIKRGGSGGGGSGDIQMTQSPSSLSASVGDRVTITCKASQLVSSAVAWYQQKPGKAPKLLIYWASTLHTGVPSRFSGSGSGTDFTLTISSLQPEDFATYYCQQHYRTPFTFGQGTKLEIKR
notes: DVD-Ig; wt hIgG1 + kappa constants
B2: DVD3159 (bispecific antibody, IgG1)
VH: EVQLVQSGAEVKKPGASVKVSCKASGYTFTSYWMHWVRQAPGQGLEWIGNINPKGGSNIYNEKFQGRVTMTRDTSISTAYMELSRLRSDDTAVYYCARLDYFGDSFDLWGQGTTVTVSSASTKGPEVQLVESGGGLVQPGGSLRLSCAASGFTFSNYGVEWVRQAPGKGLEWVSGIWADGSTHYADTVKSRFTISRDNSKNTLYLQMNSLRAEDTAVYYCAREWQHGPVAYWGQGTLVTVSS
VL: DIQMTQSPSSLSASVGDRVTITCRASQGIRNYLNWYQQKPGKAPKLLIYYASNLEVGVPSRFSGSGSGTDYTLTISSLQPEDFATYYCQQDNRFPYTFGGGTKVEIKRTVAAPDIQMTQSPSSLSASVGDRVTITCKASQLVSSAVAWYQQKPGKAPKLLIYWASTLHTGVPSRFSGSGSGTDFTLTISSLQPEDFATYYCQQHYRTPFTFGQGTKLEIKR
notes: as for B1
B3: DVD2738 (bispecific antibody, human IgG1, kappa)
heavy: not shown
light: DIQMTQSPSSLSASVGDRVTISCRASQDIRNYLNWYQQKPGKAPKLLIFYTSKLHSGVPSRFSGSGSGTDYTLTISSLQPEDIATYYCQQGLTPPLTFGGGTKVEIKRGGSGGGGSGDIQMTQSPSSLSASVGDRVTITCKASQLVSSAVAWYQQKPGKAPKLLIYWASTLHTGVPSRFSGSGSGTDFTLTISSLQPEDFATYYCQQHYRTPFTFGQGTKLEIKRTVAAPSVFIFPPSDEQLKSGTASVVCLLNNFYPREAKVQWKVDNALQSGNSQESVTEQDSKDSTYSLSSTLTLSKADYEKHKVYACEVTHQGLSSPVTKSFNRGEC
B4: DVD2691 (bispecific antibody, human IgG1, kappa)
heavy: not shown
light: DIQMTQSPSSLSASVGDRVTISCRASQDIRNYLNWYQQKPGKAPKLLIFYTSKLHSGVPSRFSGSGSGTDYTLTISSLQPEDIATYYCQQGLTPPLTFGGGTKVEIKRTVAAPSVFIFPPDIQMTQSPSSLSASVGDRVTITCRASQLVSSAVAWYQQKPGKAPKLLIYWASARHTGVPSRFSGSGSGTDFTLTISSLQPEDFATYYCQQHYKTPFTFGQGTKLEIKRTVAAPSVFIFPPSDEQLKSGTASVVCLLNNFYPREAKVQWKVDNALQSGNSQESVTEQDSKDSTYSLSSTLTLSKADYEKHKVYACEVTHQGLSSPVTKSFNRGEC
B5: DVD2741 (bispecific antibody, human IgG1, kappa)
heavy: not shown
light: B4 light with R144K, A173T, R174L, K213R
B6: DVD2788 (bispecific antibody, human IgG1, kappa)
heavy: not shown
light: DIQMTQSPSSLSASVGDRVTISCRASQDIRNYLNWYQQKPGKAPKLLIFYTSKLHSGVPSRFSGSGSGTDYTLTISSLQPEDIATYYCQQGLTPPLTFGGGTKVEIKRGGSGGGGSGDIQMTQSPSSLSASVGDRVTITCRASQDISQYLNWYQQKPGKAPKLLIYYTSRLQSGVPSRFSGSGSGTDFTLTISSLQPEDFATYFCQQGNTWPPTFGQGTKLEIKRTVAAPSVFIFPPSDEQLKSGTASVVCLLNNFYPREAKVQWKVDNALQSGNSQESVTEQDSKDSTYSLSSTLTLSKADYEKHKVYACEVTHQGLSSPVTKSFNRGEC
B7: DVD2692 (bispecific antibody, human IgG1, kappa)
heavy: not shown
light: DIQMTQSPSSLSASVGDRVTISCRASQDIRNYLNWYQQKPGKAPKLLIFYTSKLHSGVPSRFSGSGSGTDYTLTISSLQPEDIATYYCQQGLTPPLTFGGGTKVEIKRTVAAPDIQMTQSPSSLSASVGDRVTITCRASQLVSSAVAWYQQKPGKAPKLLIYWASARHTGVPSRFSGSGSGTDFTLTISSLQPEDFATYYCQQHYKTPFTFGQGTKLEIKRTVAAPSVFIFPPSDEQLKSGTASVVCLLNNFYPREAKVQWKVDNALQSGNSQESVTEQDSKDSTYSLSSTLTLSKADYEKHKVYACEVTHQGLSSPVTKSFNRGEC
B8: DVD2739 (bispecific antibody, human IgG1, kappa)
heavy: not shown
light: B7 light with R137K, A166T, R167L, K206R
B9: DVD2742 (bispecific antibody, human IgG1, kappa)
heavy: not shown
light: B7 light with R137K, A166T, R167L, K206R
B10: AB397 (antibody, V domains shown)
VH: EVTLRESGPGLVKPTQTLTLTCTLYGFSLSTSDMGVDWIRQPPGKGLEWLAHIWWDDVKRYNPALKSRLTISKDTSKNQVVLKLTSVDPVDTATYYCARTVSSGYIYYAMDYWGQGTLVTVSS
VL: DIQMTQSPSSLSASVGDRVTISCRASQDIRNYLNWYQQKPGKAPKLLIFYTSKLHSGVPSRFSGSGSGTDYTLTISSLQPEDIATYYCQQGLTPPLTFGGGTKVEIKR
B11: AB398 (antibody, V domains shown)
VH: EVQLVQSGAEVKKPGASVKVSCKASGYTFTTYGVSWVRQAPGQGLEWMGEIYPGNYNTYYNEKFRGRVTMTTDTSTSTAYMELRSLRSDDTAVYYCARWRTSYFSDYGYFDYWGQGTTVTVSS
VL: DVVMTQSPLSLPVTLGQPASISCRSSQSLVHSHGNTYLHWYQQRPGQSPRLLIYTVSNRFSGVPDRFSGSGSGTDFTLKISRVEAEDVGVYYCSQSTHVPYTFGGGTKVEIKR

Legend:
[1] = biological target: Recombinant Human IL-13 (human, UniProt P35225 35-146, limits assumed); test: Biacore SPR
Summary of the method: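 Antibodies or DVD-Ig captured on anti-mouse IgG (Fcγ) CM5 surface, SPR at 25 °C in HBS-EP+. Antigen at 0.8–100 nM, 50 μl/min; association 5 min, dissociation 10 min. kon and koff came from a global 1:1 fit with local Rmax.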
Target sequence in this assay (P35225 35-146 limits assumed): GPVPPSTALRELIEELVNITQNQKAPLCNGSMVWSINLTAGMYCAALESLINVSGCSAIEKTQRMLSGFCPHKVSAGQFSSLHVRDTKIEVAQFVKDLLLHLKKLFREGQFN

[2] = biological target: Recombinant Human IL-13 (human, UniProt P35225 35-146, limits assumed); test: cell-based or functional assay
Target sequence in this assay (P35225 35-146 limits assumed): as above

Binder | IL-13 Neutralization Assay IC50 [2] | further results
B1 |  | Kd [1]: 0.057 nM; koff [1]: 6.7e-05 s⁻¹; kon [1]: 1.2e+06 M⁻¹ s⁻¹
B2 |  | Kd [1]: 0.039 nM; koff [1]: 5.4e-05 s⁻¹; kon [1]: 1.4e+06 M⁻¹ s⁻¹
B3 | 0.149 nM | 
B4 | 0.105 nM | 
B5 | 0.118 nM | 
B6 | 0.072 nM | 
B7 | 0.131 nM | 
B8 | 0.132 nM | 
B9 | 0.064 nM | 
B10 | 0.066 nM | 
B11 | 0.068 nM | 
